Measurements: PMC9301129

What was measured:
Settings in all cases: glycan lost; control: UNC93B1(WT)
[1] = blot of TLR9 in isolated phagosomes
[2] = TLR9 co-IP after CpG DNA, anti-MyD88 blot
[3] = streptavidin pull-down, anti-myc blot, KO iBMDM
[4] = cycloheximide chase, anti-GFP blot, UNC93B1 KO iBMDM
[5] = confocal microscopy, colocalisation with CD63, KO BMDC
[6] = confocal microscopy, TLR9-GFP with CD63-cherry, KO BMDC
[7] = cycloheximide chase, anti-myc blot, full-length and cleaved TLR9

Row | Protein | other: TLR9 trafficking to phagosomes [1] | other: MyD88 recruitment to TLR9 [2] | other: CpG DNA binding by client TLR9 [3] | degradation_or_half_life [4] | localisation_or_trafficking [5] | other: endosomal localisation of client TLR9 [6] | other: stability and processing of client TLR9 [7]
1 | UNC93B1: N272Q (protein) parent chain: MEVEPPLYPVAGAAGPQGDEDRHGVPDGPEAPLDELVGAYPNYNEEEEERRYYRRKRLGVVKNVLAASTGVTLTYGVYLGLLQMQLILHYDETYREVKYGNMGLPDIDSKMLMGINVTPIAALLYTPVLIRFFGTKWMMFLAVGIYALFVSTNYWERYYTLVPSAVALGMAIVPLWASMGNYITRMSQKYYEYSHYKEQDEQGPQQRPPRGSHAPYLLVFQAIFYSFFHLSFACAQLPMIYFLNNYLYDLNHTLINVQSCGTKSQGILNGFNKTVLRTLPRSKNLIVVESVLMAVAFLAMLMVLGLCGAAYRPTEEIDLRSVGWGNIFQLPFKHVRDFRLRHLVPFFIYSGFEVLFACTGFALGYGVCSMGLERLAYLLIAYSLGASASSVLGLLGLWLPRSVPLVAGAGLHLLLTLSLFFWAPAPRVLQHSWIFYFVAALWGVGSALNKTGLSTLLGILYEDKERQDFIFTIYHWWQAVAIFVVYLGSSLPMKAKLAVLLVTLVAAAASYLWMEQKLQQGLVPRQPRIPKPQHKVRGYRYLEEDNSDESDMEGEQGQGDCAEDEAPQAGPLGAEPAGPCRKPCPYEQALGGDGPEEQ | no change | decreases | no change | no change | no change | no change | no change
2 | UNC93B1: N251Q (protein) parent chain: MEVEPPLYPVAGAAGPQGDEDRHGVPDGPEAPLDELVGAYPNYNEEEEERRYYRRKRLGVVKNVLAASTGVTLTYGVYLGLLQMQLILHYDETYREVKYGNMGLPDIDSKMLMGINVTPIAALLYTPVLIRFFGTKWMMFLAVGIYALFVSTNYWERYYTLVPSAVALGMAIVPLWASMGNYITRMSQKYYEYSHYKEQDEQGPQQRPPRGSHAPYLLVFQAIFYSFFHLSFACAQLPMIYFLNNYLYDLNHTLINVQSCGTKSQGILNGFNKTVLRTLPRSKNLIVVESVLMAVAFLAMLMVLGLCGAAYRPTEEIDLRSVGWGNIFQLPFKHVRDFRLRHLVPFFIYSGFEVLFACTGFALGYGVCSMGLERLAYLLIAYSLGASASSVLGLLGLWLPRSVPLVAGAGLHLLLTLSLFFWAPAPRVLQHSWIFYFVAALWGVGSALNKTGLSTLLGILYEDKERQDFIFTIYHWWQAVAIFVVYLGSSLPMKAKLAVLLVTLVAAAASYLWMEQKLQQGLVPRQPRIPKPQHKVRGYRYLEEDNSDESDMEGEQGQGDCAEDEAPQAGPLGAEPAGPCRKPCPYEQALGGDGPEEQ |  | no change | no change | no change | no change | no change | no change
3 | UNC93B1: N251Q/N272Q (protein) parent chain: MEVEPPLYPVAGAAGPQGDEDRHGVPDGPEAPLDELVGAYPNYNEEEEERRYYRRKRLGVVKNVLAASTGVTLTYGVYLGLLQMQLILHYDETYREVKYGNMGLPDIDSKMLMGINVTPIAALLYTPVLIRFFGTKWMMFLAVGIYALFVSTNYWERYYTLVPSAVALGMAIVPLWASMGNYITRMSQKYYEYSHYKEQDEQGPQQRPPRGSHAPYLLVFQAIFYSFFHLSFACAQLPMIYFLNNYLYDLNHTLINVQSCGTKSQGILNGFNKTVLRTLPRSKNLIVVESVLMAVAFLAMLMVLGLCGAAYRPTEEIDLRSVGWGNIFQLPFKHVRDFRLRHLVPFFIYSGFEVLFACTGFALGYGVCSMGLERLAYLLIAYSLGASASSVLGLLGLWLPRSVPLVAGAGLHLLLTLSLFFWAPAPRVLQHSWIFYFVAALWGVGSALNKTGLSTLLGILYEDKERQDFIFTIYHWWQAVAIFVVYLGSSLPMKAKLAVLLVTLVAAAASYLWMEQKLQQGLVPRQPRIPKPQHKVRGYRYLEEDNSDESDMEGEQGQGDCAEDEAPQAGPLGAEPAGPCRKPCPYEQALGGDGPEEQ |  | decreases |  |  |  |  | 
